# In the Immune Epitope Database (IEDB):
# Target: HLA-A*11:01
# Assay: IEDB peptide-MHC binding, purified MHC/competitive/radioactivity; filed as Kd, often an IC50 or EC50 that approximates it; ≥ and ≤ were set here for values at or beyond the usual limits of such assays
# Conditions: source organism: Human papillomavirus 16
row,Sequence,Kd
1,QQLLRREVY,1190 nM

# Target: HLA-A*03:01
# Assay: as above
# Conditions: source organism: Human papillomavirus 16
row,Sequence,Kd
1,IILECVYCK,3700 nM
2,SLYGTTLEQ,3750 nM

# Target: HLA-A*01:01
# Assay: as above
# Conditions: source organism: Human papillomavirus 16
row,Sequence,Kd
1,EIDGPAGQA,3240 nM
2,HVDIRTLED,3760 nM
3,QAEPDRAHY,2790 nM
4,TTDLYCYEQ,3760 nM

# Target: HLA-A*24:02
# Assay: as above
# Conditions: source organism: Human papillomavirus 16
row,Sequence,Kd
1,LLRREVYDF,4780 nM
2,MHQKRTAMF,4490 nM

# Target: HLA-A*11:01
# Assay: IEDB peptide-MHC binding, purified MHC/competitive/radioactivity; ≥ and ≤ were set here for values at or beyond the usual limits of such assays
# Conditions: source organism: Human papillomavirus 16
row,Sequence,IC50
1,AVCDKCLK,496 nM
2,IVYRDGNPY,21 nM
3,GIVCPICSQK,98 nM
4,FQDPQERPRK,453 nM
5,AMFQDPQER,12 nM
6,GTTLEQQYNK,6 nM
7,DIILECVYCK,280 nM
8,LLIRCINCQK,24 nM
9,ISEYRHYCY,166 nM
10,TTLEQQYNK,6 nM
11,IILECVYCK,125 nM

# Target: HLA-A*03:01
# Assay: as above
# Conditions: source organism: Human papillomavirus 16
row,Sequence,IC50
1,AMFQDPQER,290 nM
2,HLDKKQRFH,68 nM
3,LLIRCINCQK,92 nM

# Target: HLA-A*01:01
# Assay: as above
# Conditions: source organism: Human papillomavirus 16
row,Sequence,IC50
1,ETTDLYCY,320 nM
2,YSKISEYRHY,147 nM
3,ISEYRHYCY,49 nM

# Target: HLA-A*24:02
# Assay: as above
# Conditions: source organism: Human papillomavirus 16
row,Sequence,IC50
1,RAHYNIVTF,290 nM
2,CYSLYGTTL,137 nM
3,RFHNIRGRW,220 nM
4,VYDFAFRDL,360 nM
5,FYSRIREL,461 nM
